In US20240166767A1 (SCIRHOM, published 2024):

Target: T1, dog iRhom2 full length wild type C-terminally tagged with 3 consecutive copies of the T7 epitope (dog, UniProt Q00M95 1-827)
T1 construct: whole, on cells; also called dog-iR2-FL-WT-T7; expressed by MEF-DKO-Dog-iR2-FL-WT-T7 cells
T1 sequence: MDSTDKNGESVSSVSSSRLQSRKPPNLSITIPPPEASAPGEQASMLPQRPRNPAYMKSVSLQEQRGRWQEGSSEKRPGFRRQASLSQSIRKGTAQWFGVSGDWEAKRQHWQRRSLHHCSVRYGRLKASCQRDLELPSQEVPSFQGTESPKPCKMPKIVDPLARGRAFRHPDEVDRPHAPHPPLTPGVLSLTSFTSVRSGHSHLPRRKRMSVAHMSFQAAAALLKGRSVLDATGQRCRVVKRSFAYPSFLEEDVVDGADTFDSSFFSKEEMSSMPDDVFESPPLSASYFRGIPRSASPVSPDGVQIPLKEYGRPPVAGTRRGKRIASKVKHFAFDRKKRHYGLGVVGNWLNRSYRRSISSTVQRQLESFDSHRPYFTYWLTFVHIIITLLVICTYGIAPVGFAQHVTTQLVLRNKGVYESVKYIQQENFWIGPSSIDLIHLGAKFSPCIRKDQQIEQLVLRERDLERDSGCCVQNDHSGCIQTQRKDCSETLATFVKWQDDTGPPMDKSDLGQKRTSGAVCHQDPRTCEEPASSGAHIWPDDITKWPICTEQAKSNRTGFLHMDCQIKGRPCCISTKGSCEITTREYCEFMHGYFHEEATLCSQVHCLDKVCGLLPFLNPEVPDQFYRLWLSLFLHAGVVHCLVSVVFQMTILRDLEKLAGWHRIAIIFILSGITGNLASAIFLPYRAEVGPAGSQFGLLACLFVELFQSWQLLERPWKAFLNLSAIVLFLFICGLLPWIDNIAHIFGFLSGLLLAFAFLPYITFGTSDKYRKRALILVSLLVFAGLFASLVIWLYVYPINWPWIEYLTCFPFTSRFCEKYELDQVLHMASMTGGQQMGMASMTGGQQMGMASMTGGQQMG
Test: FACS on MEF-DKO-Dog-iR2-FL-WT-T7 cells
Procedure: In brief, immortalized MEF-DKO-EV control cells, MEF-DKO-rhesus-iR2-FL-WT-T7 cells, MEF-DKO-cyno-iR2-FL-WT-T7 cells, MEF-DKO-dog-iR2-FL-WT-T7 cells and MEF-DKO-rabbit-iR2-FL-WT-T7 cells, as well as their respective iRhom1 counterparts, were harvested with 10 mM EDTA in PBS, washed and resuspended in FACS buffer (PBS, 3% FBS, 0.05% sodium azide), and seeded in Nunc U-bottom 96-well plates (Thermo Fisher Scientific, USA) at approximately 3×10⁵ cells per well. To pellet cells and remove supernatants, the plates were centrifuged at 1,500 rpm and 4° C. for 3 minutes. For primary staining, cells were resuspended in 100 μl per well of either FACS buffer alone (controls), mouse monoclonal anti-T7 IgG (Merck Millipore, USA) at 3 μg/ml FACS buffer or the antibodies of the invention also at 3 μg/ml FACS buffer and incubated on ice for 1 hour. Afterwards, plates were centrifuged at 1,500 rpm and 4° C. for 3 minutes and washed twice with 200 μl per well of FACS buffer. For secondary staining of previous anti T7 staining, cells were spun down and resuspended in 100 μl per well of PE-conjugated goat anti-mouse IgG F(ab′)2 detection fragment (Dianova, Germany) diluted 1:100 in FACS buffer. […] Finally, cells were resuspended in 150 μl per well of FACS buffer and analyzed using a BD Accuri™ C6 Plus flow cytometer (Becton Dickinson, Germany).

B1: humanized antibody 16-B-03 (antibody, V domains shown)
VH: QVTLRESGPALVKPTQTLTLTCTFSGFSLSTFALGVGWIRQPPGKALEWLAHIWWDDDKYYNPALKSRLTISKDTSKNQVVLTITNMDPVDTATYYCARITTYYYGMDYWGQGTLVTVSS
VL: EIVMTQSPDFQSVTPKEKVTITCRASQSIGNHLHWYQQKPDASPKLLIKYASQSISGVPSRFSGSGSGTDFTLTINSLEAEDAATYFCQQSYQWPLTFGQGTKLEIK
notes: Tested as whole humanized antibody produced in CHO cells and detected with anti-human IgG; the general methods speak of human IgG1/Kappa; also called clone 16-B-03
binding result: binds
